According to the supplement of paper PMC10126150:
± gives the standard deviation of the averaged measurements.

Test system: ATP
Assay: switch fluorescence ratio, 500 uM ATP over buffer (Cy3 cluster intensity, sum of 5 cycles each) (fold (ratio)); higher = stronger signal-on switching upon ATP binding; sequences stand for … in TCGTCGGCAGCGTCAGATGTGTATAAGAGACAGTTTTTTTTTTTTTTTTTTTTTTTTT…TC
Conditions: aptamer strand: ATP DNA aptamer (quencher-CACCTGGGGGAGTATTGCGGAGGAAGG + anchor), 100 nM annealed; ATP concentration: 500 uM
Procedure, shortened: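 Clusters with intensities outside 100-1000 RFU were excluded. The remaining Cy3-labelled switching-strand clusters on a modified Illumina MiSeq flow-cell had been annealed to 100 nM quencher-labelled ATP aptamer and imaged in selection buffer, then after 15 min with 500 uM ATP at 22 °C, for five cycles separated by NaOH stripping and re-annealing. The fluorescence ratio, averaged per switch-domain sequence, is each cluster's summed target-cycle Cy3 intensity over its summed buffer-cycle Cy3 intensity.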
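Also: ATP exposure 15 min at 22 °C before imaging.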

| Sequence | switch fluorescence ratio |
| --- | --- |
| TGTTGGTGTA | 0.994 ± 0.01 |
| TAAGAGTGCA | 0.973 ± 0.027 |
| TGAAGGATGA | 0.9978 ± 0.0058 |
| GAGTTTGTTG | 0.985 ± 0.014 |
| TAGGATGTA | 0.9643 ± 0.0014 |
| TGGCTGTTTT | 1.04 ± 0.042 |
| ATGGGGGTGC | 0.99 ± 0.026 |
| ACCAGCTTTC | 1.16 ± 0.015 |
| TGTGGGGGCT | 1 ± 0.026 |
| CGATTAACTC | 1.03 ± 0.012 |
| AGCAGTGCGG | 1.03 ± 0.024 |
| TTTTGCGAAT | 0.996 ± 0.018 |
| CGACGGGCAG | 1.01 ± 0.042 |
| GAGTTAGTCA | 0.975 ± 0.024 |
| AGCATTGGTT | 1.02 ± 0.035 |
| TCAGAAATAG | 1.24 ± 0.15 |
| TTACGATGGG | 0.97086 ± 0.00075 |
| AAGGGACTTG | 0.995 ± 0.018 |
| GGGCCTTGGT | 0.987 ± 0.025 |
| CTCGGACAAG | 0.9964 ± 0.0058 |
| AAGGTTCGAT | 0.984 ± 0.049 |
| AGGTGTCTTG | 1.14 ± 0.074 |
| ATCAATTGGT | 1.013 ± 0.0052 |

| Sequence | switch fluorescence ratio |
| --- | --- |
| AACTAACGTG | 1.3 ± 0.056 |
| AGGGCGCGGA | 1.05 ± 0.016 |
| GCGATTGGAG | 1.01 ± 0.034 |
| TGAGATGGTC | 1.004 ± 0.01 |
| GTGCTAGTCT | 0.979 ± 0.067 |
| CGAGTCTTTG | 1.03 ± 0.059 |
| ACGTGGTCCA | 0.985 ± 0.037 |
| TGTACTATGC | 1.06 ± 0.058 |
| AACCTATTAT | 0.998 ± 0.019 |
| TTGTTGGCCG | 0.9637 ± 0.0078 |
| CGGTCAACAC | 1.66 ± 0.15 |
| TAGGCAGCGG | 0.991 ± 0.023 |
| GGTAGAGTAC | 1.02 ± 0.046 |
| AGTTTTATTG | 0.993 ± 0.026 |
| ATACGGGGGT | 1.005 ± 0.0076 |
| TGGACGTGGG | 0.98 ± 0.052 |
| TATAAAAGTC | 0.992 ± 0.023 |
| TAAAAGTG | 0.961 ± 0.05 |
| TGTTGGTAAA | 1.02 ± 0.024 |
| GGGTTACGGG | 1.008 ± 0.0045 |
| CCCCCACTGG | 1.1 ± 0.15 |
| GTCAAATGGT | 0.972 ± 0.021 |
| CGTTGGGCAG | 0.953 ± 0.099 |

| Sequence | switch fluorescence ratio |
| --- | --- |
| AAGCGGCTTC | 0.988 ± 0.013 |
| TGGGGATTGT | 0.968 ± 0.023 |
| TTTTGTCAAG | 1.01 ± 0.033 |
| TAGTTAGGCA | 0.9819 ± 0.0053 |
| AAGGGGGG | 0.994 ± 0.062 |
| CATTGGGTTG | 0.9633 ± 0.0019 |
| CAGGTGTGGG | 1.2 ± 0.1 |
| CCCATTTGCT | 1.02 ± 0.03 |
| GTTTTTAGTG | 0.983 ± 0.038 |
| GGAGCTCGGG | 0.975 ± 0.038 |
| GGCAGTAGTG | 1.002 ± 0.0037 |
| CGAAATCCTT | 1.05 ± 0.039 |
| CTCAGACAGC | 1.107 ± 0.0056 |
| TTACGTTACG | 1.34 ± 0.047 |
| TAAGGCTGC | 1.04 ± 0.076 |
| GTTTGGGGGA | 0.9909 ± 0.0052 |
| TCGCTGAGG | 0.9921 ± 0.00077 |
| AGTGAGTCGG | 0.979 ± 0.018 |
| TTAGTGGGTA | 0.981 ± 0.082 |
| GGGGGCCTAG | 0.981 ± 0.035 |
| CTTAGCTAGT | 1.09 ± 0.13 |
| TTGGTCGCGG | 0.97078 ± 5.7e-05 |
| GAAAAAGAGA | 0.9736 ± 0.0016 |

| Sequence | switch fluorescence ratio |
| --- | --- |
| TGAGAAGTCA | 0.9785 ± 0.0066 |
| TTTATGATTT | 1 ± 0.024 |
| GAATTAGGTG | 1.21 ± 0.029 |
| TTATGCGGGG | 0.995 ± 0.046 |
| GCTGAAGTTC | 0.993 ± 0.025 |
| CAACGGGCGG | 1 ± 0.019 |
| CTTCGGTAAC | 2.175 ± 0.0072 |
| TTATTTGGCC | 0.997 ± 0.032 |
| AAATTTGCCA | 0.9566 ± 0.0066 |
| TTTTATGTT | 0.978 ± 0.018 |
| ATGAGGGGAG | 0.997 ± 0.013 |
| TCTGTAAGAA | 1.03 ± 0.041 |
| GACGCAGGTG | 2.5 ± 0.24 |
| GAGGCTATGG | 1.01 ± 0.022 |
| TAAAAATTGG | 0.997 ± 0.014 |
| AATTTTTTCC | 1.41 ± 0.53 |
| CACTTATTCT | 0.973 ± 0.017 |
| TAATTTTTTT | 1.01 ± 0.014 |
| AAGGGGCCGA | 0.994 ± 0.034 |
| TTTTTGATGT | 0.994 ± 0.022 |
| TAGGGAATGA | 1 ± 0.016 |
| CGAAGGGACG | 1.05 ± 0.081 |
| ATTTGCGTAC | 1.277 ± 0.0018 |

| Sequence | switch fluorescence ratio |
| --- | --- |
| AGGGCAGCGG | 1.03 ± 0.033 |
| CATCGTGGTA | 1.04 ± 0.11 |
| AGATAAATCA | 0.978 ± 0.033 |
| TGATTGTGTA | 0.987 ± 0.048 |
| ATAAAGAATG | 1.01 ± 0.05 |
| ATCGTAGGTG | 1.04 ± 0.12 |
| GAAGGCCATG | 1.016 ± 0.0075 |
| GGTATGGGGT | 1.03 ± 0.058 |
| ATTTTTTCTG | 0.9907 ± 0.0059 |
| CCCGGGGGCA | 1.21 ± 0.25 |
| TCGTAATGTG | 1.03 ± 0.033 |
| GGGGTTGAGG | 0.993 ± 0.023 |
| TGTGTATGAG | 0.986 ± 0.036 |
| ATTTAGGACT | 0.978 ± 0.027 |
| CGTCCTTTTT | 1.05 ± 0.039 |
| ATTATTACGT | 0.99 ± 0.038 |
| GAGTCGAATT | 0.9738 ± 0.0058 |
| GGGTCAAATA | 0.982 ± 0.011 |
| TATAGTCTCG | 1.01 ± 0.019 |
| TTCGAAAAAG | 0.9961 ± 0.008 |
| AACTAGCCGG | 0.961 ± 0.025 |
| CGGGGTTTGG | 0.999 ± 0.017 |
| AATTTGGCAC | 1.05 ± 0.09 |

| Sequence | switch fluorescence ratio |
| --- | --- |
| GCTAATTGGC | 1.04 ± 0.098 |
| GATCATAGGG | 1.01 ± 0.018 |
| TATTATGGGG | 1.02 ± 0.034 |
| ACACACCAGG | 2.98 ± 0.18 |
| GAGGCGGGGA | 1.01 ± 0.03 |
| TGCACGGCTT | 1.13 ± 0.03 |
| TAGGGACGCA | 1.16 ± 0.018 |
| AATTGCCAGT | 1.01 ± 0.018 |
| AGCGGGAACG | 1.005 ± 0.0013 |
| TAAAAAGGTA | 1.02 ± 0.028 |
| CCGAGTATGT | 1.19 ± 0.034 |
| TACGTCATTA | 1.2 ± 0.012 |
| ATTGAGGAAT | 0.965 ± 0.064 |
| TCTTGGGTTT | 0.992 ± 0.012 |
| TTTCATCGTA | 0.99 ± 0.049 |
| TTTCGATATT | 0.989 ± 0.019 |
| TTTTCTTTGG | 1.03 ± 0.077 |
| AATAAAGAGT | 0.974 ± 0.015 |
| ATGGTAGGGG | 0.986 ± 0.014 |
| ACGTGTGATG | 0.99 ± 0.024 |
| GGGTATGTAT | 0.992 ± 0.027 |
| TTGGGTTGCG | 0.964 ± 0.035 |
| ATGTTGGGAA | 0.978 ± 0.029 |

| Sequence | switch fluorescence ratio |
| --- | --- |
| CGCATGTAAC | 3.43 ± 0.81 |
| CTTCGAAGTT | 0.98 ± 0.045 |
| GAAGGTGAGG | 1.01 ± 0.019 |
| ACGGGGTTTT | 1.01 ± 0.017 |
| AGCTTCCATG | 1.09 ± 0.023 |
| TTCATATTGT | 0.955 ± 0.024 |
| GGTTGGAAAT | 0.99 ± 0.06 |
| GTGTTGGGGC | 0.985 ± 0.038 |
| CGCATTGGGG | 1.13 ± 0.037 |
| CGGCATAGAT | 1.04 ± 0.029 |
| CGGGCCTTGA | 0.981 ± 0.016 |
| TGGCGATAAT | 1.05 ± 0.031 |
| CACAAGGCGG | 1.03 ± 0.041 |
| TTTCTGGCTA | 1.08 ± 0.053 |
| GTTGGCTTGG | 1.02 ± 0.04 |
| TAAGGGGAAA | 0.979 ± 0.026 |
| ATTAAGGTAA | 1.01 ± 0.033 |
| GGGACAAACC | 1.02 ± 0.019 |
| GCTATATTGG | 0.9933 ± 0.0091 |
